Assay results as given in US20230039487A1.

What was measured:
[1] = target: hBCMA-His (human) (UniProt Q02223); assay: ELISA; isotype control
[2] = target: hBCMA-mFc (UniProt Q02223); assay: competition ELISA; isotype control; blocking of APRIL binding
Sequence of hBCMA-mFc (Q02223 1-54): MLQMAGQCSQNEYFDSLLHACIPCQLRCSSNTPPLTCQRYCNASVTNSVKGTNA

Sequence of hBCMA-His (human) (Q02223 1-54): as above

## h IgG1 ISO
[1]
  EC50: 61.4 nM
[2]
  IC50: 202 nM
